Laboratory results taken from PMC4718742.

Molecular target: human CrkII (1–304) (human) (UniProt P46108)
Assay: NMR titration

Chain of human CrkII (1–304) (human) (P46108 whole entry): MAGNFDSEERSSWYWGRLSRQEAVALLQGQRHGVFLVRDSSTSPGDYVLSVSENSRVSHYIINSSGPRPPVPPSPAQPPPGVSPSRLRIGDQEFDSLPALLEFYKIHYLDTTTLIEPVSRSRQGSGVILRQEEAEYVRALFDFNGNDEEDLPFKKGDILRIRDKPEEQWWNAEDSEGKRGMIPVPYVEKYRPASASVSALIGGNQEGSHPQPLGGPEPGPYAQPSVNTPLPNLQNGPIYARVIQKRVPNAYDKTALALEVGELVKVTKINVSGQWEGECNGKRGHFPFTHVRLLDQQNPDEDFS

Kd: 15 µM
Substance: human CypA (1–165) (from UniProt P62937 1-165) (enzyme; other documents disagree on this pair)
